The target of test [1] is Cno FHA-DIL-PDZ protein (aa 372–1110) (Drosophila) (UniProt Q24279). Description: SEC-MALS; Superdex 200, 0.5 ml/min; for the DIL domain: 100 ul at 5.0 mg/ml injected, 300 mM NaCl, 25 mM Tris-HCl pH 8.5, 1 mM MgCl2, 0.1% beta-mercaptoethanol, 0.2 g/l sodium azide; monomer and homodimer peaks; conditions for FHA-DIL-PDZ not given. A general note: In gel filtration, larger molecules generally elute earlier.

Test [2] concerns the target Cno DIL domain (aa 613–1006) (Drosophila) (UniProt Q24279). The description is as above.

This note sets out measurements from article PMC11006394.

For the substance “Cno FHA-DIL-PDZ protein (aa 372–1110) (from UniProt Q24279 372-1110) (domain or fragment)”, in test [1], the percent of injected protein eluted as homodimer was 7% and the stoichiometry N turned out to be 2.

On to “Cno DIL domain (aa 613–1006) (from UniProt Q24279 613-1006) (domain or fragment)”, for which, in test [2], the percent of injected protein eluted as homodimer came out at 27% and the stoichiometry N was found to be 2.

In general, stoichiometry N refers to the number of molecules, sites or subunits per partner or assembly.
